Sequences and labels used below:
B1: F3.121.4-L1H2 (antibody, mouse IgG1, kappa, V domains shown)
VH: EVQLVQSGAEVKKPGASVKVSCKASGYTFTNYWMHWVRQAPGQGLEWMGEIDPSDNYANYNQEFQGRVTITVDKSASTAYMELSSLRSEDTAVYYCARHDGYFGALDYWGQGTTVTVSS
VL: EIVLTQSPATLSLSPGERATLSCSASSSISSNYLHWYQQKPGQAPRFLIYRTSNLASGIPARFSGSGSGTDFTLTISSLEPEDFAVYYCQQASSIPRMFTFGQGTKLEIKR
notes: murine IgG1 constant regions; also called humanized antibody of F3.121.4
B2: F3.121.4-L2H2 (antibody, mouse IgG1, kappa, V domains shown)
VH: B1 VH
VL: EIVLTQSPDFQSVTPKEKVTITCSASSSISSNYLHWYQQKPDQSPKLLIKRTSNLASGVPSRFSGSGSGTDFTLTINSLEAEDAATYYCQQASSIPRMFTFGQGTKLEIKR
notes: as for B1
B3: F3.121.4-L2H1 (antibody, mouse IgG1, kappa, V domains shown)
VH: B1 VH with G44R
VL: B2 VL
notes: as for B1
B4: F3.121.4-L1H4 (antibody, mouse IgG1, kappa)
heavy: EVQLQQSGAEVKKPGASVKVSCKASGYTFTNYWMHWVRQRPGQGLEWMGEIDPSDNYANYNQEFQGRVTITVDKSASTAYMELSSLRSEDTAVYYCARHDGYFGALDYWGQGTTVTVSSAKTTPPSVYPLAPGSAAQTNSMVTLGCLVKGYFPEPVTVTWNSGSLSSGVHTFPAVLQSDLYTLSSSVTVPSSTWPSETVTCNVAHPASSTKVDKKIVPRDCGCKPCICTVPEVSSVFIFPPKPKDVLTITLTPKVTCVVVDISKDDPEVQFSWFVDDVEVHTAQTQPREEQFNSTFRSVSELPIMHQDWLNGKEFKCRVNSAAFPAPIEKTISKTKGRPKAPQVYTIPPPKEQMAKDKVSLTCMITDFFPEDITVEWQWNGQPAENYKNTQPIMDTDGSYFVYSKLNVQKSNWEAGNTFTCSVLHEGLHNHHTEKSLSHSPGK
light: EIVLTQSPATLSLSPGERATLSCSASSSISSNYLHWYQQKPGQAPRFLIYRTSNLASGIPARFSGSGSGTDFTLTISSLEPEDFAVYYCQQASSIPRMFTFGQGTKLEIKRADAAPTVSIFPPSSEQLTSGGASVVCFLNNFYPKDINVKWKIDGSERQNGVLNSWTDQDSKDSTYSMSSTLTLTKDEYERHNSYTCEATHKTSTSPIVKSFNRNEC
notes: as for B1
B5: F3.121.4-L3H2 (antibody, mouse IgG1, kappa, V domains shown)
VH: B1 VH
VL: B2 VL with L47F, K50Y
notes: as for B1
B6: F3.121.4-L1H3 (antibody, mouse IgG1, kappa)
heavy: B4 heavy with Q5V
light: B4 light
notes: as for B1
B7: F3.121.4-L1H1 (antibody, mouse IgG1, kappa, V domains shown)
VH: B1 VH with G44R
VL: B1 VL
notes: as for B1
B8: F3.121.4-L3H1 (antibody, mouse IgG1, kappa, V domains shown)
VH: B1 VH with G44R
VL: B2 VL with L47F, K50Y
notes: as for B1
B9: F3.121.4-L3H3 (antibody, mouse IgG1, kappa)
heavy: B4 heavy with Q5V
light: EIVLTQSPDFQSVTPKEKVTITCSASSSISSNYLHWYQQKPDQSPKFLIYRTSNLASGVPSRFSGSGSGTDFTLTINSLEAEDAATYYCQQASSIPRMFTFGQGTKLEIKRADAAPTVSIFPPSSEQLTSGGASVVCFLNNFYPKDINVKWKIDGSERQNGVLNSWTDQDSKDSTYSMSSTLTLTKDEYERHNSYTCEATHKTSTSPIVKSFNRNEC
notes: as for B1
B10: F3.121.4-L3H4 (antibody, mouse IgG1, kappa)
heavy: B4 heavy
light: B9 light
notes: as for B1
B11: F3.121.4-L2H4 (antibody, mouse IgG1, kappa)
heavy: B4 heavy
light: B9 light with F47L, Y50K
notes: as for B1
B12: F3.121.4-L2H3 (antibody, mouse IgG1, kappa)
heavy: B4 heavy with Q5V
light: B9 light with F47L, Y50K
notes: as for B1

Substitutions are numbered along the chain they refer to.

In the first test the target is T1, human CD19 exon1-3-his protein (human, UniProt P15391 20-186, limits assumed).
T1 construct: made in HEK293E cells; also called membrane-distal end; not shown: His tag
T1 sequence (looked up): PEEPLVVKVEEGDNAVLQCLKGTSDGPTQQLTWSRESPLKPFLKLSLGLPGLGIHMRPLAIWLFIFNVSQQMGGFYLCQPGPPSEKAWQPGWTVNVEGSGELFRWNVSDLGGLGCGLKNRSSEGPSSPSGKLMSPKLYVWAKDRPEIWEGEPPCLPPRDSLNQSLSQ
In words: ELISA, coated at 2 ug/mL.
Turning to B1, the binding result is given as “no binding”.

With B2, the binding result was “no binding”.

On to B3, for which the binding result is “no binding”.

Turning to B4, the binding result is recorded as “no binding”.

As for B5, the binding result was “no binding”.

Consider B6, for which the binding result was “no binding”.

As for B7, the binding result is given as “no binding”.

Regarding B8, the binding result is listed as “no binding”.

For B9, the binding result was “no binding”.

In the case of B10, the binding result is listed as “no binding”.

Turning to B11, the binding result is “no binding”.

B12: the binding result is “no binding”.

The next test addresses T2, murine CD19 protein (murine, UniProt P25918 17-287, limits assumed).
T2 construct: bought protein; also called commercial murine CD19
T2 sequence (looked up): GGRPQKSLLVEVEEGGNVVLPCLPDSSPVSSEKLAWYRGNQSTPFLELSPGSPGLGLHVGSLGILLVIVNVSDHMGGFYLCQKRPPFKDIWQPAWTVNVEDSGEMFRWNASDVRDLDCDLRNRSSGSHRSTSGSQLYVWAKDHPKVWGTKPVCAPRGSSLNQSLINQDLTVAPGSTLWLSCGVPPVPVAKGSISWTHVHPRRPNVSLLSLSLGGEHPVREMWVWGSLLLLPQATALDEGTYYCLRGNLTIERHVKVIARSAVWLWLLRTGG
As to the kind of experiment: ELISA. The protocol:
Human CD19-his protein (purchased from ACROBiosystems, catalog number: CD9-H52H2) was diluted with PBS to a final concentration of 4 μg/mL, and then added to a 96-well ELISA plate at 100 μl/well. The plate was sealed with a plastic film and incubated overnight at 4° C., the plate was washed 2 times with PBS the next day, and then a blocking solution [PBS+2% (w/w) BSA] was added for blocking at room temperature for 2 h. The blocking solution was poured off, and 100 nM gradiently diluted CD19 chimeric antibody or control antibody was added at 50 μl/well. After incubation at 37° C. for 2 h, the plate was washed 3 times with PBS. […] TMB substrate was added at 50 μl/well, and incubated at room temperature for 10 min, and then a stop solution (1.0 N HCl) was added at 50 μl/well. The OD450 nm values were read by an ELISA microplate reader (Multimode Plate Reader, EnSight, purchased from Perkin Elmer).
In order to detect the species cross-binding activity of the chimeric antibodies, an ELISA plate was coated with commercial murine CD19 (ACROBiosystems, catalog number: 50510-M08H) and monkey CD19 (ACROBiosystems, catalog number: 90051-C08H), respectively, and the ELISA detection was performed according to the method in example 5.1. […]
Background: ELISA stands for enzyme-linked immunosorbent assay.
For the molecule B1, the binding result is “no binding”.

As for B2, the binding result is reported as “no binding”.

B3: the binding result is reported as “no binding”.

B4: the binding result was “no binding”.

Take B5: the binding result is given as “no binding”.

As for B6, the binding result is recorded as “no binding”.

Turning to B7, the binding result is recorded as “no binding”.

As for B8, the binding result is recorded as “no binding”.

Take B9: the binding result is on record as “no binding”.

On to B10, for which the binding result is “no binding”.

For B11, the binding result is “no binding”.

With B12, the binding result is recorded as “no binding”.

(Values after US20250042994A1 (HAINAN SIMCERE ZAIMING PHARMACEUTICAL, published 2025).)
